# Changes are numbered by the printed parent chain.
# B1: hucMet22Gv2.2 (antibody, V domains shown)
# VH: QVQLVQSGAEVKKPGASVKVSCKASGYTFTDYNMDWVRQAPGQRLEWIGDLNPNNGATIYNQKFKGRATLTVDMSASTAYMELSSLRSEDTAVYYCARGNYYGNYYYLMDYWGQGTSVTVSS
# VL: DIQMTQSPSSLSASVGDRVTITCRASENIYSTLAWYQQKPGKAPKLLVYAATNLADGVPSRFSGSGSGTDYTLTISSLQPEDFATYYCQHFWGTPYTFGQGTKVEIKR
# B2: hu247.22.2-SMCC-DM1 (antibody, human IgG1, kappa, V domains shown)
# VH: EVQLVQSGAEVVKPGASVKIPCKASGYTFTDYNMDWVRQSPGKSLEWIGDLNPNNGATIYNEKFQGKATLTVDTSSSTAYMELRSLTSEDTAVYYCARGNYYGNYYYLMDYWGQGTSVTVSS
# VL: DIQMTQSPSSLSVSVGERVTITCRASENIYSTLAWYQQKPGKSPKLLVYAATNLADGVPSRFSGSGSGTEYSLKINSLQPDDFGSYYCQHFWGTPYTFGGGTKLEIKR
# modifications: DM1 linked through SMCC, average of 3-4 DM1 molecules per antibody; sites (heavy or light chain) not stated
# B3: hucMet27v1.2 (antibody, human IgG1, kappa, V domains shown)
# VH: EVQLVESGGGLVQPGGSLRLSCAASGFTFSSYDMSWVRQTPGKGLELVATINSNGVSIYYPDSVKGRFTISRDIAKNTLYLQMSSLRAEDTAMYYCAREEITTEMDYWGQGTSVTVSS
# VL: DIVLTQSPASLAVSPGQRATISCRASESVDSYGNSFIHWYQQKPGQPPKLLIYRASNLESGIPARFSGSGSRTDFTLTINPVEANDVATYYCQQSNEEPLTFGGGTKLELKR
# B4: hucMET27Gv2.1 (antibody, human IgG1, kappa, V domains shown)
# VH: B3 VH with T40A, L47W, A49S, I74N, T78S, S84N, M93V, S113L
# VL: EIVLTQSPATLSLSPGERATLSCRASESVDSYGNSFIHWYQQKPGQAPRLLIYRASNLESGIPARFSGSGSRTDFTLTISSLEPEDFAVYYCQQSNEEPLTFGQGTKVELKR
# B5: hucMET27Gv2.2 (antibody, human IgG1, kappa, V domains shown)
# VH: B3 VH with T40A, T78S, S84N, M93V, S113L
# VL: B4 VL
# B6: hucMet27Gv1.2 (antibody, human IgG1, kappa, V domains shown)
# VH: B3 VH with T40A, T78S, S84N, M93V, S113L
# VL: B4 VL with R72G
# B7: hucMET27Gv1.1 (antibody, human IgG1, kappa, V domains shown)
# VH: B3 VH with T40A, L47W, A49S, I74N, T78S, S84N, M93V, S113L
# VL: B4 VL with R72G
# B8: hu247.22.2 (antibody, human IgG1, kappa, V domains shown)
# VH: B2 VH
# VL: B2 VL
# B9: hu247.22.2-SPDB-DM4 (antibody, human IgG1, kappa, V domains shown)
# VH: B2 VH
# VL: B2 VL
# modifications: DM4 linked through SPDB; number and sites not stated for this conjugate
# B10: hucMet27Gv1.2-DGN549 (antibody, human IgG1, kappa, V domains shown)
# VH: B3 VH with T40A, T78S, S84N, M93V, S113L
# VL: B4 VL with R72G
# modifications: DGN549 conjugate; linkage site not stated for this antibody
# B11: hucMet27Gv1.2-sSPDB-DM4 (antibody, human IgG1, kappa, V domains shown)
# VH: B3 VH with T40A, T78S, S84N, M93V, S113L
# VL: B4 VL with R72G
# modifications: sSPDB-DM4 conjugate; preparation of this one not described
# B12: hucMet27v1.2-sSPDB-DM4 (antibody, human IgG1, kappa, V domains shown)
# VH: B3 VH
# VL: B3 VL
# modifications: lysines linked to sSPDB-DM4, on average 3-4 DM4 per antibody
# B13: hucMet27v1.2-DGN549 (antibody, human IgG1, kappa, V domains shown)
# VH: B3 VH
# VL: B3 VL
# modifications: lysine-linked DGN549
# B14: hucMet22Gv2.2-sSPDB-DM4 (antibody, human IgG1, kappa, V domains shown)
# VH: B1 VH
# VL: B1 VL
# modifications: lysines linked to sSPDB-DM4, on average 3-4 DM4 per antibody
# B15: hucMet22Gv2.2-DGN549 (antibody, human IgG1, kappa, V domains shown)
# VH: B1 VH
# VL: B1 VL
# modifications: DGN549 conjugate; linkage site not stated for this antibody
# Biological target: human cMET (MET, c-Met, HGF receptor) on cells (human) (UniProt P08581)
# Sequence (P08581 25-1390): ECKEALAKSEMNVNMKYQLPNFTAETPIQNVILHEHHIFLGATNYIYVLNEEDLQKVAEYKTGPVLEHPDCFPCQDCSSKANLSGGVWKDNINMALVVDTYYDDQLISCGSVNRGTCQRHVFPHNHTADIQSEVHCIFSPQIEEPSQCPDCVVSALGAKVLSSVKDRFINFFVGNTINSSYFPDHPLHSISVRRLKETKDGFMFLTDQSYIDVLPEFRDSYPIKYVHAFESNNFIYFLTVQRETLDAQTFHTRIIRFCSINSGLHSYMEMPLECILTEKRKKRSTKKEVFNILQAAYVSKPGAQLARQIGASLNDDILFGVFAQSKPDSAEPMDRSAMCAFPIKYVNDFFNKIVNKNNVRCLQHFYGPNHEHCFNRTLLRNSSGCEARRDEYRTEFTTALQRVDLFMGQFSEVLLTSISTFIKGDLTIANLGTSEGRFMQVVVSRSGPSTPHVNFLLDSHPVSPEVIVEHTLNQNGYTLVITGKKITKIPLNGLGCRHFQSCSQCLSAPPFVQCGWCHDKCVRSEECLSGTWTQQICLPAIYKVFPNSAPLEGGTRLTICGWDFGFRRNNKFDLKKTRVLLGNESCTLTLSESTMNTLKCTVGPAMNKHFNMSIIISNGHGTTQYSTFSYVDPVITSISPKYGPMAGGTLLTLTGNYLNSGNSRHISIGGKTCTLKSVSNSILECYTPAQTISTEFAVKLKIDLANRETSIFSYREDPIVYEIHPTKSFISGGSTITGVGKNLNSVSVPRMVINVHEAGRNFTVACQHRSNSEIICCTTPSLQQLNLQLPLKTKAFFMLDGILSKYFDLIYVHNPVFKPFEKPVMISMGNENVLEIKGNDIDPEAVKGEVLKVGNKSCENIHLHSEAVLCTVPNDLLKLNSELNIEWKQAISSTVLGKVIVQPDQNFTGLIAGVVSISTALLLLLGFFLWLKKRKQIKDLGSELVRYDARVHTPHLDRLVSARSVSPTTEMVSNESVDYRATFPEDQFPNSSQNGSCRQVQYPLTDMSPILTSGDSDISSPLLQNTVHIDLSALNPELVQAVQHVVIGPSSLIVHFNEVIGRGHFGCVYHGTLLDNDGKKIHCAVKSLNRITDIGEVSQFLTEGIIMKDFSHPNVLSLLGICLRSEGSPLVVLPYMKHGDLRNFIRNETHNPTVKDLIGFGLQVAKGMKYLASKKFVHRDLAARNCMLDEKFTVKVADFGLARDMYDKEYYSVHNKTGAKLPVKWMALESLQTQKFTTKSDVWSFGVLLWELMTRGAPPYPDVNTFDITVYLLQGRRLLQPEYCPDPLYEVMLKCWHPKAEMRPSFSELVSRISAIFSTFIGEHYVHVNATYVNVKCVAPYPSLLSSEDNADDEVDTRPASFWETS
# Test: cell-based or functional assay
"percent induction of NCI-H441 cell growth (WST-8), normalised to 100 ng/mL HGF [%]",Binder,"in vitro cytotoxicity in MET-expressing MKN45 cells, EC50 [nM]"
72,B1,–
–,B2,0.07

# Biological target: human cMET (MET, c-Met, HGF receptor) on cells (human) (UniProt P08581)
# Test: flow cytometry (FACS), direct binding to NCI-H441 cells expressing human cMET
row,EC50 (read off the curve) [nM],Binder
1,0.4,B3
2,0.2,B4
3,0.2,B5
4,0.2,B6
5,0.2,B7

# Biological target: human cMET (MET, c-Met, HGF receptor) on cells (human) (UniProt P08581)
# Test: flow cytometry on MET-expressing BxPC3 cells, FITC anti-human IgG; 'affinity' (apparent)
row,Kd [nM],Binder
1,0.08,B2
2,0.09,B8
3,0.07,B9

# Biological target: human cMET (MET, c-Met, HGF receptor) on cells (human) (UniProt P08581)
# Test: flow cytometry (FACS) on EBC-1 cells endogenously expressing human cMet, fluorescent secondary antibody
row,EC50 (read off the curve) [nM],Binder
1,0.3,B3
2,0.4,B10
3,0.5,B11
4,0.5,B6
5,0.2,B12
6,0.4,B13
7,0.1,B1
8,0.2,B14
9,0.2,B15

# — patent US20180230218A1
